The record followed here is PMC3196243 (Biochemistry, 2011).

B1: IC3-C58 (domain or fragment, UniProt P61169-2 288-345, looked up)
chain: SNPDSPAKPEKNGHAKIVNPRIAKFFEIQTMPNGKTRTSLKTMSRRKLSQQKEKKATQ
B2: S100B (natural protein)
chain: SELEKAMVALIDVFHQYSGREGDKHKLKKSELKELINNELSHFLEEIKEQEVVDKVMETLDNDGDGECDFQEFMAFVAMVTTACHEFFEHE

Where two headings read alike, the source gives them in different places.

Assay [1] concerns the target B2. Briefly: NMR titration.
Assay [2] has as its target B2. Nature of the assay: NMR titration. The source holds these as a separate data set.
Assay [3] has as its target T1, His6-IC3 (third intracellular loop of the dopamine D2S receptor, R217-Q345) (UniProt P61169-2 217-345).
T1 sequence (looked up): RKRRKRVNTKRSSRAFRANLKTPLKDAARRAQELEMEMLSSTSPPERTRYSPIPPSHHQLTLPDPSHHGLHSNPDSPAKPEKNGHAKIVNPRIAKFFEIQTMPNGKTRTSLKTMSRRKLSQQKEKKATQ
Nature of the assay: pull-down.

With B1, the equilibrium dissociation constant (Kd) amounted to 1 ± 1 µM in the assay with S100B [1] and 274 ± 58 µM with S100B [2].

B2: the binding result in assay [3] was “binds”.

In general, Kd refers to the constant that tells how readily two partners part at equilibrium. Higher therefore signals a looser complex.
